Test results as given in US20050013808A1, “Nitroreductase enzymes” (priority 2001, published 2005).
Numbering of substitutions follows the chain as printed. Names may count otherwise. “And” between values parts separate entries of the source, which are not always exact repeats. Identical values can stand only once.

B1: F124N (protein)
chain: MDIISVALKRHSTKAFDASKKLTPEQAEQIKTLLQYSPSSTNSQPWHFIVASTEEGKARVAKSAAGNYVFNERKMLDASHVVVFCAKTAMDDVWLKLVVDQEDADGRFATPEAKAANDKGRKFNADMHRKDLHDDAEWMAKQVYLNVGNFLLGVAALGLDAVPIEGFDAAILDAEFGLKEKGYTSLVVVPVGHHSVEDFNATLPKSRLPQNITLTEV
B2: Wild type: wild-type E. coli nitroreductase (NTR) encoded by the NfsB gene, SEQ ID NO:1 (protein, listed as Escherichia coli)
chain: B1 chain with N124F
B3: Y68G: NTR mutant, tyrosine 68 to glycine (protein)
chain: B1 chain with Y68G, N124F
B4: Y68G F124W (protein)
chain: B1 chain with Y68G, N124W
B5: T41G (protein)
chain: B1 chain with T41G, N124F
B6: S40G (protein)
chain: B1 chain with S40G, N124F
B7: Y68N (protein)
chain: B1 chain with Y68N, N124F
B8: N71S (protein)
chain: B1 chain with N71S, N124F
B9: T41L: NTR mutant, threonine 41 to leucine (protein)
chain: B1 chain with T41L, N124F
B10: S40T (protein)
chain: B1 chain with S40T, N124F
B11: G120A (protein)
chain: B1 chain with G120A, N124F
B12: S40A (protein)
chain: B1 chain with S40A, N124F
B13: N71S F124K: NTR double mutant, asparagine 71 to serine combined with phenylalanine 124 to lysine (protein)
chain: B1 chain with N71S, N124K
B14: Y68G F124Q (protein)
chain: B1 chain with Y68G, N124Q
B15: Y68W (protein)
chain: B1 chain with Y68W, N124F
B16: G120S (protein)
chain: B1 chain with G120S, N124F
B17: N71D (protein)
chain: B1 chain with N71D, N124F
B18: F124K: NTR mutant, phenylalanine 124 to lysine (protein)
chain: B1 chain with N124K

Columns and labels:
[1] = tested on: UT5600 cells (NTR−) lysogens; assay: Replica-plate screening of mutant NTR-expressing lysogens on increasing CB1954 (growth score); type: cell-based, E. coli; design: key to Score: 0: Good growth on all concentrations of CB 1954 = vector; Good growth on 100 and 200, faint on 300, ring of growth on 400 μM; Good growth on 100 and 200, ring growth on 300, none or very faint on 400 μM; Good growth on 100, faint to good on 200, none or very faint on 300 and 400 μM; 4: Good growth on 100 μM, none to ring growth on 200 μM = wild type; Good growth on 50 μM, ring on 100 μM, none on 200, 300 or 400 μM; 6: Faint growth on 50 μM, ring on 100 μM; 7: Good growth on 50 μM, none on 100 μM; 8: Ring growth on 50 μM, none on 100 μM; 9: None or very faint growth on 50 μM, none on 100 μM; 10: None or ring growth on 35 μM; conditions: for Score: growth of lysogens on agar with kanamycin, IPTG and 0-400 μM CB1954, wild type = 4, higher = more sensitive
Description: The ligation mix was packaged (Stratagene) into lambda bacteriophage particles that were used to infect UT5600 cells (NTR ^−). As a control wild type NTR was also cloned into this vector (JG16C2). Kanamycin resistant lysogens were selected on agar plates ([…] kanamycin) then individually grown overnight in a well of a 96-well plate in LB+Kanamycin. The clones were replica plated on to a series of plates containing Tris-buffered (50 mM, pH 7.5) LB agar with kanamycin, IPTG (0.1 mM) and CB1954 at a concentration of 0, 25, 35, 50, 100, 200, 300 or 400 μM (see FIG. 3). […]

HeLa cells = assay: CB1954 sensitisation of HeLa cells after adenoviral NTR expression (MTS viability); type: cell-based, human; conditions: range of MOIs, 0-50 μM CB1954, 5 hour exposure, MTS assay
Description: Sensitisation of HeLa cells to CB1954 was assayed using the following protocol. Cells were infected with NTR-expressing viruses in suspension (2 hours) at a range of MOIs prior to plating into microtitre plates (10^4 cells/well). After a 24 hour expression period, CB1954 was applied at a range of concentrations (0-50 μM) and after a 5 hour exposure to the prodrug, cell viability was assessed using the Promega MTS cell substrate killing assay (2-3 hour incubation before plate reading at OD450 nm). […] Adenovirus titreing by plaque formation on helper cells is however an error-prone process. To correct for this, experiments were performed with multiple independent titred preparations of each virus.
The titres of these mixes were assumed to be the means of the respective experimentally determined titres. For western blot analysis of NTR expression for normalisation purposes, whole cell extracts were resolved by SDS-PAGE on an 11% separation gel and blotted onto a nitrocellulose membrane. NTR was detected using a sheep anti-NTR serum (1:1000 diluted), donkey anti-sheep IgG labelled with HRP (horseradish peroxidase) and SuperSignal West Pico Chemiluminescence substrate (Pierce), analysed with an Alpha Innotech Imager Model #2.3.1. The relative loading of each well was determined by Coomassie blue staining of the gel post transfer.

[2] = tested on: UT5600 cells (NTR−) lysogens; assay: Survival curve (colony count) IC50 of CB1954 in NTR-expressing lysogens; type: cell-based, E. coli; conditions: concentration of CB1954 giving 50% reduction in colony number after 36h growth; lysogen expressing the named NTR
Description: To quantify the improvement in NTR activity in the clones in a less subjective way, a few clones were selected for further study by determining their survival curves. The lysogens were grown overnight in LB +kanamycin and diluted to approximately 1 cell per μl based on the OD. In duplicate, 100 μl diluted cells were plated into Tris-buffered LB plates containing kanamycin, IPTG and 0-400 μM CB1954. After 36h growth the number of colonies on each plate were counted and expressed as a percentage of the number present on the plates with no CB1954. Survival curves showing % survival versus concentration of CB 1954 were plotted (see examples in FIG. 7) and the IC50 determined as the concentration of CB 1954 which kills gives a 50% reduction in colony number (Table 3 and FIG. 8). A few clones containing mutations resulting in an enhanced sensitivity to CB 1954 were selected for further study.

[3] = Steady state kinetics of purified NTR, variable substrate nitrofurazone; type: biochemical; conditions: fixed substrate NADH
Description: (§1) Wild type NTR and selected mutants were purified as described by Lovering et al., 2001. Steady state kinetic studies were carried out by monitoring the disappearance of nitrofurazone ( ? =12,960, Zenno, et al., 1994) and nitrofurantoin ( ? =12,020, McOsker, et al., 1992) at 420 nm or the disappearance of reduced benzoquinone ( ? =18,5000), 2-nitrofuran ( ? =10,250, McOsker, et al., 1992), 2-nitrobenzamide ( ? =9,750, McOsker, et al., 1992) and 4 nitrobenzamide ( ? =9,720, McOsker, et al., 1992) at 300 nm. The formation of the 4 hydroxylamine product of CB1954 reduction was monitored at 420 nm ( ? =7900, Richard Knox, personal communication).
(§2) All reactions were performed in quartz cuvettes with either a 0.1-, 0.5-, or 1-cm pathlength. In all cases the reaction was initiated by the addition of a small amount of cold enzyme solution to the reaction mix. Assays were performed in 10 mM Tris HCL pH 7.0. The temperature of each reaction was maintained at 25° C. by means of a circulating water bath. All substrates examined were dissolved in DMSO, with the final concentration of organic solvent not exceeding 4% (v/v), concentrations>5% (v/v) give definable enzyme inhibition. In all assay the final DMSO concentration was at 4%. All steady state data were collected in an aerobic environment. Kinetic data were collected at concentration ranges extending from 0.1 of Km to the maximum possible concentration permitted by substrate solubility or optical absorbance. In all cases maximum substrate concentrations exceeded 5×Km. All data was analysed using the commercial package Sigma Plot™ and fit with non-linear regression to a rectangular hyperbola of the form: y=ax/b+x

[4] = Steady state kinetics of purified NTR, variable substrate NADH; type: biochemical; conditions: fixed substrate nitrofurazone; for Km: 10 mM Tris HCl pH 7.0, 25° C., 4% DMSO
Description: as §1, §2

[5] = Steady state kinetics of purified NTR, variable substrate CB1954; type: biochemical; conditions: for Km / kcat: variable substrate CB1954, fixed substrate NADH; for kinetic parameters compared with wild type: second substrate CB1954, nucleotide NADH
Description: as §1, §2

Molecule | Score [1] | IC50 [2] | also measured
B1 | 8-10 | 21 µM | nitroreductase activity with CB1954 compared with wild-type [1]: substantially greater activity with CB 1954 than the wild-type; sensitisation of HeLa cells to CB1954 killing compared with WT NTR (HeLa cells): more extensive cell killing than that caused by expression of the WT enzyme
B2 | 4 | 118 µM | Km [3]: 157 ± 4 µM; kcat [3]: 11.4 ± 0.05 s⁻¹; kcat [4]: 11 ± 0.383 s⁻¹; Km [4]: 7 ± 1 µM; Km [5]: 852 ± 8 µM; kcat [5]: 5.7 ± 0.417 s⁻¹
B3 | 7 | 43 µM | Km [3]: 699 ± 24 µM; kcat [3]: 59.02 ± 0.4 s⁻¹; kcat [4]: 54.77 ± 0.55 s⁻¹; Km [4]: 22 ± 1 µM; kinetic parameters compared with wild type [5]: large improvement in catalytic activity vs. second substrate but not in kcat/Km; Km [5]: 1840 ± 44 µM; kcat [5]: 11.5 ± 0.9 s⁻¹
B4 | 5-7 | 69 µM | 
B5 | 5-7 | 120 µM | 
B6 | 5 | 90 µM | 
B7 | 5-7 | 79 µM | 
B8 | 7 | 55 µM | 
B9 | 5-7 | 38 µM | Km [3]: 79 ± 11 µM; kcat [3]: 35.14 ± 0.612 s⁻¹; kcat [4]: 35.18 ± 0.583 s⁻¹; Km [4]: 5 ± 2 µM; kinetic parameters compared with wild type [5]: best bimolecular rate constant vs. the second substrate; Km [5]: 871 ± 77 µM; kcat [5]: 16.2 ± 1.37 s⁻¹
B10 | 5 | 102 µM | 
B11 | 4-5 | 160 µM | 
B12 | 5-7 | 100 µM and 84 µM | 
B13 | 9 | 16 µM | sensitisation of HeLa cells to CB1954 killing compared with WT NTR (HeLa cells): more extensive cell killing than that caused by expression of the WT enzyme
B14 | 4 | 143 µM | 
B15 | 4-5 | 108 µM | 
B16 | 4-6 | 125 µM | 
B17 | 5 | 110 µM | 
B18 | 8-10 | 23 µM | Km [3]: 53 ± 5 µM; kcat [3]: 12.6 ± 0.25 s⁻¹; kcat [4]: 12 ± 0.15 s⁻¹; Km [4]: 1 ± 0.2 µM; kinetic parameters compared with wild type [5]: significant improvement in kcat/Km for both nucleotide and second substrate; Km [5]: 371 ± 12 µM; kcat [5]: 5.72 ± 0.717 s⁻¹; nitroreductase activity with CB1954 compared with wild-type [1]: substantially greater activity with CB 1954 than the wild-type
